Test results reported in publication PMC3319151 (Journal of Molecular Biology, 2009).
Where no end group is shown, it is not given here. The star is where a group is joined. 5FAM = O=C1OC2(c3ccc(O)cc3Oc3cc(O)ccc32)c2ccc(C(=O)*)cc21

What was measured:
(FAM)-AWFHVEED peptide = experiment: fluorescence polarisation
[1] = target: WFHVEED peptide (synthetic construct); experiment: fluorescence polarization; conditions: cited from earlier work
[2] = target: T1, CA150 FF1-3 (human CA150 residues 661-845), GST cleaved off (human, UniProt O14776 661-845); experiment: fluorescence polarisation
T1 sequence: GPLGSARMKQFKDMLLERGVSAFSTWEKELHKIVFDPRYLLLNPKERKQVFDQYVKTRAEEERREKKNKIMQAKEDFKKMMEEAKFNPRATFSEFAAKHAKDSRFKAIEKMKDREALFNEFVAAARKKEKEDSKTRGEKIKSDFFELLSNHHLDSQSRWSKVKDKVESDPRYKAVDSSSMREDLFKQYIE

CA150 FF1-3 wild-type = target: T2, CA150 FF1-3 wild-type (human, UniProt O14776 661-845); experiment: fluorescence polarization
T2 sequence: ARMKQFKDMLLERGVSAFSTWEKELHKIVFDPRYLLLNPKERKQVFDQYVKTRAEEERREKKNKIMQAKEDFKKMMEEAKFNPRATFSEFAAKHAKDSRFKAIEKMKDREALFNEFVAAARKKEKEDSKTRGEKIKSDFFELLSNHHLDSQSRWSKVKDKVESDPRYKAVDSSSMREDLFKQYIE

GST-CA150 FF1-3 = target: T3, GST-CA150 FF1-3 (human, UniProt O14776 661-845); experiment: fluorescence polarization
T3 sequence: T2 sequence

## GST alone
(FAM)-AWFHVEED peptide
  Kd: > 740 µM

## CA150 (GST-FF1-3) FF1-3 (from UniProt O14776)
[1]
  Kd: 48 µM

## 5FAM-AWFHVEED [(FAM)-AWFHVEED peptide]
[2]
  Kd: > 400 µM

B1: MATa1/MATalpha2 duplex of Ke et al. (dsDNA)
DNA 1: ACATGTAAAAATTTACATCA
DNA 2: TTGATGTAAATTTTTACATG
CA150 FF1-3 wild-type
  Kd: 3.87 ± 0.31 µM
GST-CA150 FF1-3
  Kd: 0.52 ± 0.06 µM
